These results are taken from US20020042382A1 (UNITED STATES OF AMERICA AS REPRESENTED BY THE SECRETARY OF …, published 2002).

The target of assay [1] is T1, Sequestrin GST-R(0-IV) fusion protein (Plasmodium falciparum).
T1 construct: The five domains R0-RIV are said to represent the entirety of amino acids H42-A458; also called domain combination R(0-IV); not shown: glutathione S-transferase fusion partner encoded by vector pGEX-3X (Pharmacia), followed by a Factor Xa site
T1 chain: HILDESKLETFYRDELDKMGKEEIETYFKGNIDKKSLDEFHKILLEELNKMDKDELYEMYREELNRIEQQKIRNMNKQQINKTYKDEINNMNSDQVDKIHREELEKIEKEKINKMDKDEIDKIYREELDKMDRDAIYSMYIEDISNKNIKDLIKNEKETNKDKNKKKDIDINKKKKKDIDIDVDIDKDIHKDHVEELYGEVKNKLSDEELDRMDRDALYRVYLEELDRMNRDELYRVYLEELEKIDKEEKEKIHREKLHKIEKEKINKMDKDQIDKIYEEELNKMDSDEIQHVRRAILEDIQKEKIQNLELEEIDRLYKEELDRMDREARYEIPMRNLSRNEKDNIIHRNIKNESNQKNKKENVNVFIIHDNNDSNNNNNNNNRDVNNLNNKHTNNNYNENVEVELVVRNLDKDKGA
Nature of the assay: competition of 125I-CD36 binding to plate-coated GST-R(0-IV) by unlabeled CD36, gamma counting.

The next assay deals with radiolabeled ICAM-1 (UniProt P05362 28-532, radiolabelled). Briefly: bacterial extracts blotted and probed with radiolabeled ICAM-1.

As usually defined, the Ki is a measure of affinity in units of concentration, obtained from inhibition or displacement. High values mean weaker binding, low ones tighter binding.

Chain of radiolabeled ICAM-1 (P05362 28-532 limits assumed): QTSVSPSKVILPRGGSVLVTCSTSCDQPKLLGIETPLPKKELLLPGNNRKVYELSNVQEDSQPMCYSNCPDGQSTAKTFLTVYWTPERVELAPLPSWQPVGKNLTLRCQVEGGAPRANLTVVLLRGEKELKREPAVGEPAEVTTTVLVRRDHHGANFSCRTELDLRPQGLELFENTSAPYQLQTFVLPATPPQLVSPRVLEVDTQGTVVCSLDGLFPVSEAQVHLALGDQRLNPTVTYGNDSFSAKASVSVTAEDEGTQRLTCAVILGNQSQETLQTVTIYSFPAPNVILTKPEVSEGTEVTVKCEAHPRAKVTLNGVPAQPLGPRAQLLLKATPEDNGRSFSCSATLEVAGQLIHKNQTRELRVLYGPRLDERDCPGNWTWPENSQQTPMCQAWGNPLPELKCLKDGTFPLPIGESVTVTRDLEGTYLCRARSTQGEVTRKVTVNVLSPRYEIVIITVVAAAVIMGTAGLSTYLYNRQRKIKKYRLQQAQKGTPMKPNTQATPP

B1: CD36 (purified) (receptor)
chain: GCDRNCGLIAGAVIGAVLAVFGGILMPVGDLLIQKTIKKQVVLEEGTIAFKNWVKTGTEVYRQFWIFDVQNPQEVMMNSSNIQVKQRGPYTYRVRFLAKENVTQDAEDNTVSFLQPNGAIFEPSLSVGTEADNFTVLNLAVAAASHIYQNQFVQMILNSLINKSKSSMFQVRTLRELLWGYRDPFLSLVPYPVTTTVGLFYPYNNTADGVYKVFNGKDNISKVAIIDTYKGKRNLSYWESHCDMINGTDAASFPPFVEKSQVLQFFSSDICRSIYAVFESDVNLKGIPVYRFVLPSKAFASPVENPDNYCFCTEKIISKNCTSYGVLDISKCKEGRPVYISLPHFLYASPDVSEPIDGLNPNEEEHRTYLDIEPITGFTLQFAKRLQVNLLVKPSEKIQVLKNLKRNYIVPILWLNETGTIGDEKANMFRSQVTGKINLLGLIEMILLSVGVVMFVAFMISYCACRSKTIK
modifications: 125I-labelled where used as probe
notes: Purified protein, a gift from Dr. N. Tandon; Used 125I-labelled in solution or coated on plates or dishes; also called 125I-CD36; radiolabelled human CD36
As for B1, the Ki in assay [1] is about 6 nM.

B2: trpE fusion protein representing Sequestrin amino acids H42-A458 (other)
chain: HILDESKLETFYRDELDKMGKEEIETYFKGNIDKKSLDEFHKILLEELNKMDKDELYEMYREELNRIEQQKIRNMNKQQINKTYKDEINNMNSDQVDKIHREELEKIEKEKINKMDKDEIDKIYREELDKMDRDAIYSMYIEDISNKNIKDLIKNEKETNKDKNKKKDIDINKKKKKDIDIDVDIDKDIHKDHVEELYGEVKNKLSDEELDRMDRDALYRVYLEELDRMNRDELYRVYLEELEKIDKEEKEKIHREKLHKIEKEKINKMDKDQIDKIYEEELNKMDSDEIQHVRRAILEDIQKEKIQNLELEEIDRLYKEELDRMDREARYEIPMRNLSRNEKDNIIHRNIKNESNQKNKKENVNVFIIHDNNDSNNNNNNNNRDVNNLNNKHTNNNYNENVEVELVVRNLDKDKGA
notes: Tested in a bacterial extract, blotted
With B2, the binding result with radiolabeled ICAM-1 was “no binding”.
